T1: soluble H-2K^b (K^bsol), empty heterodimer of truncated K^b heavy chain and murine β-2 microglobulin (murine), P01901
T1 chain 1: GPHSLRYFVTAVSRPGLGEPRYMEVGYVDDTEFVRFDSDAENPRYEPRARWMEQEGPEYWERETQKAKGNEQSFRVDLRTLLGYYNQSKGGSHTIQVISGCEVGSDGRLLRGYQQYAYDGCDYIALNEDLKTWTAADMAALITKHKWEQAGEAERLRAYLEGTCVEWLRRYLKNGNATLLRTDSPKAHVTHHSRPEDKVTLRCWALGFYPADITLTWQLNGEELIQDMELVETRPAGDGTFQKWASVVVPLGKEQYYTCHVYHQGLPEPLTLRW
T1 chain 2: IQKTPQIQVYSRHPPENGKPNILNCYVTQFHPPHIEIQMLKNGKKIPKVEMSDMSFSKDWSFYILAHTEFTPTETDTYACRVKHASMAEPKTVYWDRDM


Target: T1, soluble H-2K^b (K^bsol), empty …

| Binder | Kd |
| --- | --- |
| EQLESIINFEKLTEWTSSNVMEER (modifications not checked) [OVA-24 peptide] | 71000 nM |
| SIINFEKLT (modifications not checked) [OVA-9C peptide] | 11 nM |
| LESIINFEKL (modifications not checked) [OVA-10N peptide] | 280 nM |
| SIINFEKL (modifications not checked) [OVA-8 peptide (ovalbumin 257-264)] | 4.1 nM |
| SIINFEKLTE (modifications not checked) [OVA-10C peptide] | 14 nM |

Reference: patent US6461867
